Data taken from patent US20240043515A1 (Chugai, published 2024).

T1: hFcγRIIaH on Jurkat effector cells (human, UniProt P12318 34-317)
T1 sequence (looked up): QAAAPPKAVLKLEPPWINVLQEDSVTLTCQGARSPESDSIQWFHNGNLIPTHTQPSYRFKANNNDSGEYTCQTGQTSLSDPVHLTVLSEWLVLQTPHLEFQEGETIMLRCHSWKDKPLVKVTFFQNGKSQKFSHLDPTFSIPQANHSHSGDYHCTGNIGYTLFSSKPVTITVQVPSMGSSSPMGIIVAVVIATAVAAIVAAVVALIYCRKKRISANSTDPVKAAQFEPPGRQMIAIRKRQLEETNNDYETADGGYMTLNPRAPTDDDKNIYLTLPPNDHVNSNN

T2: human FcγRIIa H extracellular domain (human, UniProt P12318 34-217)
T2 construct: extracellular domain; also called hFcγR IIa H; FcγRIIa allotype H131
T2 sequence (looked up): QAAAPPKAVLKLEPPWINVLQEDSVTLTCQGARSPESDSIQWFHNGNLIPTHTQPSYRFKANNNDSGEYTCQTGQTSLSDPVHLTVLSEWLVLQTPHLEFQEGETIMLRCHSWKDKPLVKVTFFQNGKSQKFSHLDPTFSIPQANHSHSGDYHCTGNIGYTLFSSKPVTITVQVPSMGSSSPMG

T3: human FcγRIIa R extracellular domain (human, UniProt P12318 34-217)
T3 construct: extracellular domain; also called hFcγR IIa R; FcγRIIa allotype R131
T3 sequence (looked up): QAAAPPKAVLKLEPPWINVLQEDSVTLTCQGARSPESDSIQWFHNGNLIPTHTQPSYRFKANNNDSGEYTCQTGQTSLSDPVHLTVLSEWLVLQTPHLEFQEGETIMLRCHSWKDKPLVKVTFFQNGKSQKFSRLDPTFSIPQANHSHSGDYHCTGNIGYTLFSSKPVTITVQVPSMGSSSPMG

T4: human FcγRIIb extracellular domain (human, UniProt P31994 43-217)
T4 construct: extracellular domain; also called hFcγR IIb
T4 sequence (looked up): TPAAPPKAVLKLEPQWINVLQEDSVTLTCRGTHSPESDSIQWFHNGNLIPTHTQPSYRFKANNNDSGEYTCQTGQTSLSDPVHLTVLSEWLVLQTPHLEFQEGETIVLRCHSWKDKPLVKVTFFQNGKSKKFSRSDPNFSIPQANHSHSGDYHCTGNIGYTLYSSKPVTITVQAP

B1: EGL-ART11 (H240-Kn496/L73-k0//H240-H1516/L73-k0) (antibody, human IgG1, kappa)
heavy 1: QDQLVQSGAEVKKPGASVKVSCKASGFNIKDTYIQWVRQAPGQGLEWMGRIDPLRKQTKYREKFEGRVTITADTSTNTAYMELSSLRSEDTAVYYCVRSGREFDYWGQGTLVTVSSASTKGPSVFPLAPSSKSTSGGTAALGCLVKDYFPEPVTVSWNSGALTSGVHTFPAVLQSSGLYSLSSVVTVPSSSLGTQTYICNVNHKPSNTKVDKKVEPKSCDKTHTCPPCPAPEFQWGPMVFLFPPKPKDVLMISRTPEVTCVVVDVSDEEPEVKFNWYVDGVEVHNAKTKPREEQYNATYRVVSVLPVLHQDWLNGKEYKCKVSNKALPAPIEKTISKAKGQPREPQVCTLPPSRDELTKNQVSLWCLVKGFYPSDIAVEWESNGQPENNYKTTPPVLDSDGSFFLYSKLTVDKSRWQQGNVFSCSVMHEALHNHYTQKSLSLSP
heavy 2: QDQLVQSGAEVKKPGASVKVSCKASGFNIKDTYIQWVRQAPGQGLEWMGRIDPLRKQTKYREKFEGRVTITADTSTNTAYMELSSLRSEDTAVYYCVRSGREFDYWGQGTLVTVSSASTKGPSVFPLAPSSKSTSGGTAALGCLVKDYFPEPVTVSWNSGALTSGVHTFPAVLQSSGLYSLSSVVTVPSSSLGTQTYICNVNHKPSNTKVDKKVEPKSCDKTHTCPPCPAPELLGGPSVFLFPPKPKDVLMISRTPEVTCVVVDVSHEEPEVKFNWYVDGVEVHNAKTKPREEQYNATYRVVSVLPVLHQDWLNGKEYKCKVSNDALPAPIEETISKAKGQPREPQVYTLPPSRCELTKNQVSLSCAVKGFYPSDIAVEWESNGQPENNYKTTPPVLDSDGSFFLVSKLTVDKSRWQQGNVFSCSVMHEALHNHYTQKSLSLSP
light: DIQMTQSPSSLSASVGDRVTITCRASQDIHKYIAWYQQKPGQAPRLLIQYTSTLQPGVPSRFSGSGSGTDYTFTISSLQPEDIATYYCLQYEQLRTFGGGTKVEIKRTVAAPSVFIFPPSDEQLKSGTASVVCLLNNFYPREAKVQWKVDNALQSGNSQESVTEQDSKDSTYSLSSTLTLSKADYEKHKVYACEVTHQGLSSPVTKSFNRGEC
notes: Kn496: L234F/L235Q/G236W/S239M/T250V/H268D/D270E/S298A/T307P + Y349C/T366W; H1516: T250V/D270E/S298A/T307P/K326D/K334E + D356C/T366S/L368A/Y407V
B2: EGL-SDALIE (H240-Kn032/L73-k0//H240-H1032/L73-k0) (antibody, human IgG1, kappa)
heavy 1: QDQLVQSGAEVKKPGASVKVSCKASGFNIKDTYIQWVRQAPGQGLEWMGRIDPLRKQTKYREKFEGRVTITADTSTNTAYMELSSLRSEDTAVYYCVRSGREFDYWGQGTLVTVSSASTKGPSVFPLAPSSKSTSGGTAALGCLVKDYFPEPVTVSWNSGALTSGVHTFPAVLQSSGLYSLSSVVTVPSSSLGTQTYICNVNHKPSNTKVDKKVEPKSCDKTHTCPPCPAPELLGGPDVFLFPPKPKDTLMISRTPEVTCVVVDVSHEDPEVKFNWYVDGVEVHNAKTKPREEQYNSTYRVVSVLTVLHQDWLNGKEYKCKVSNKALPLPEEKTISKAKGQPREPQVCTLPPSRDELTKNQVSLWCLVKGFYPSDIAVEWESNGQPENNYKTTPPVLDSDGSFFLYSKLTVDKSRWQQGNVFSCSVMHEALHNHYTQKSLSLSP
heavy 2: QDQLVQSGAEVKKPGASVKVSCKASGFNIKDTYIQWVRQAPGQGLEWMGRIDPLRKQTKYREKFEGRVTITADTSTNTAYMELSSLRSEDTAVYYCVRSGREFDYWGQGTLVTVSSASTKGPSVFPLAPSSKSTSGGTAALGCLVKDYFPEPVTVSWNSGALTSGVHTFPAVLQSSGLYSLSSVVTVPSSSLGTQTYICNVNHKPSNTKVDKKVEPKSCDKTHTCPPCPAPELLGGPDVFLFPPKPKDTLMISRTPEVTCVVVDVSHEDPEVKFNWYVDGVEVHNAKTKPREEQYNSTYRVVSVLTVLHQDWLNGKEYKCKVSNKALPLPEEKTISKAKGQPREPQVYTLPPSRCELTKNQVSLSCAVKGFYPSDIAVEWESNGQPENNYKTTPPVLDSDGSFFLVSKLTVDKSRWQQGNVFSCSVMHEALHNHYTQKSLSLSP
light: DIQMTQSPSSLSASVGDRVTITCRASQDIHKYIAWYQQKPGQAPRLLIQYTSTLQPGVPSRFSGSGSGTDYTFTISSLQPEDIATYYCLQYEQLRTFGGGTKVEIKRTVAAPSVFIFPPSDEQLKSGTASVVCLLNNFYPREAKVQWKVDNALQSGNSQESVTEQDSKDSTYSLSSTLTLSKADYEKHKVYACEVTHQGLSSPVTKSFNRGEC
notes: S239D/A330L/I332E in both heavy chains; Kn032 with Y349C/T366W, H1032 with D356C/T366S/L368A/Y407V

Assays:
[1] = biological target: hFcγRIIIaV on Jurkat effector cells (human, UniProt P08637 17-254); experiment: cell-based or functional assay
hFcγRIIIaV on Jurkat effector cells, sequence (P08637 17-254, form in doubt): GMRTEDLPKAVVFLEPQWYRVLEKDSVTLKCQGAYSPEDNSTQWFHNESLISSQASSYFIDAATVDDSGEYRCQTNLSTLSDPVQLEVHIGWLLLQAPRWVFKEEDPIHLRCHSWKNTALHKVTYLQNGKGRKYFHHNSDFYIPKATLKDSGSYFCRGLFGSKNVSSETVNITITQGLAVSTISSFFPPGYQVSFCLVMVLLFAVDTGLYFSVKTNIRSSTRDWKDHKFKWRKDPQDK

[2] = biological target: T1, hFcγRIIaH on Jurkat effector cells; experiment: cell-based or functional assay
[3] = biological target: T5, human FcγRIa extracellular domain (human, UniProt P12314 16-292); experiment: SPR; KD of G1d divided by KD of this antibody
T5 construct: extracellular domain; also called hFcγR Ia
T5 sequence (P12314 16-292): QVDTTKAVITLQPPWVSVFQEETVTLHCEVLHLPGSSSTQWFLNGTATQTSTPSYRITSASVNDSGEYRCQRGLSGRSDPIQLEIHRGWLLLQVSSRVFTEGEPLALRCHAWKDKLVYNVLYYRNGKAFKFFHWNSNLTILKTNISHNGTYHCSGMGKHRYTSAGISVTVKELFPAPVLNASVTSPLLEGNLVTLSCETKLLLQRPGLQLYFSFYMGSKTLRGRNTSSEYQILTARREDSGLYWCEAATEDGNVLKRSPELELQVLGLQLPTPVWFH
Protocol: (§1) The extracellular domains of FcγRs were produced by the method described in WO2014104165. The interaction between the produced antibodies and human FcγRs was analyzed using Biacore 8K+ by the method below. For the running buffer, 50 mM Na-Phosphate, 150 mM NaCl, and 0.05% Tween20 (pH 7.4) was used, and measurement was performed at 25° C. The sensor chip used was a Series S SA chip (GE Healthcare) onto which CaptureSelect Human Fab-kappa Kinetics Biotin Conjugate (Thermo Fisher Scientific) was immobilized. An antibody of interest was captured onto this chip, and each FcγR diluted with the running buffer was allowed to interact with it. The chip was regenerated using 10 mM Glycine-HCl (pH 1.5), and repeatedly used to capture antibodies and perform measurement. The dissociation constants KD (mol/L) of each antibody for FcγRs were calculated using Biacore Insight Evaluation Software, with a steady state affinity model for the dissociation constant for FcγRIIb and a 1:1 Langmuir binding model for the dissociation constants for the other FcγRs (Table 2).

[4] = biological target: T2, human FcγRIIa H extracellular domain; experiment: SPR; KD of G1d divided by KD of this antibody
Protocol: as §1

[5] = biological target: T3, human FcγRIIa R extracellular domain; experiment: SPR; KD of G1d divided by KD of this antibody
Protocol: as §1

[6] = biological target: T4, human FcγRIIb extracellular domain; experiment: SPR; KD of G1d divided by KD of this antibody
Protocol: as §1

[7] = biological target: T6, human FcγRIIIa F extracellular domain (human, UniProt P08637 17-208); experiment: SPR; KD of G1d divided by KD of this antibody
T6 construct: extracellular domain; also called hFcγR IIIa F; FcγRIIIa allotype F158
T6 sequence (P08637 17-208): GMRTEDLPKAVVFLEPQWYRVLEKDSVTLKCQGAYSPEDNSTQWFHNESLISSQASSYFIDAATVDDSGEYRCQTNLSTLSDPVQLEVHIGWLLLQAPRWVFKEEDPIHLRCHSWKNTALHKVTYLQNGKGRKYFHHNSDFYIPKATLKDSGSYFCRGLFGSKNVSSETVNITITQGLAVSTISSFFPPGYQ
Protocol: as §1

[8] = biological target: T7, human FcγRIIIa V extracellular domain (human, UniProt P08637 17-208); experiment: SPR; KD of G1d divided by KD of this antibody
T7 construct: extracellular domain; also called hFcγR IIIa V; FcγRIIIa allotype V158
T7 sequence (P08637 17-208 F176V): as the sequence (P08637 17-208) above, with F160V counted along it
Protocol: as §1

[9] = biological target: T2, human FcγRIIa H extracellular domain; experiment: SPR; KD for hFcγRIIb divided by KD for this FcγR
Protocol: as §1

[10] = biological target: T3, human FcγRIIa R extracellular domain; experiment: SPR; KD for hFcγRIIb divided by KD for this FcγR
Protocol: as §1

[11] = biological target: T6, human FcγRIIIa F extracellular domain; experiment: SPR; KD for hFcγRIIb divided by KD for this FcγR
Protocol: as §1

[12] = biological target: T7, human FcγRIIIa V extracellular domain; experiment: SPR; KD for hFcγRIIb divided by KD for this FcγR
Protocol: as §1

Row | Binder | EC50 of reporter gene induction (ADCC Reporter Bioassay, Hepa1-6/hEREG target cells) [1] [ng/mL] | EC50 of reporter gene induction (ADCP Reporter Bioassay, Hepa1-6/hEREG target cells) [2] [ng/mL] | Relative value to KD between G1d and hFcgRs [3] [times] | Relative value to KD between G1d and hFcgRs [4] [times] | Relative value to KD between G1d and hFcgRs [5] [times] | Relative value to KD between G1d and hFcgRs [6] [times] | Relative value to KD between G1d and hFcgRs [7] [times] | Relative value to KD between G1d and hFcgRs [8] [times] | A/I ratio (KD for FcγRIIb divided by KD for each FcγR) [9] [ratio] | A/I ratio (KD for FcγRIIb divided by KD for each FcγR) [10] [ratio] | A/I ratio (KD for FcγRIIb divided by KD for each FcγR) [11] [ratio] | A/I ratio (KD for FcγRIIb divided by KD for each FcγR) [12] [ratio]
1 | B1 | 0.413 | 36.7 | 2.4 | 4.9 | 1.3 | 0.7 | 141 | 97.5 | 63.3 | 11.5 | 694 | 3970
2 | B2 | 1.78 | – | 54.3 | 1 | 1.8 | 3.9 | 113 | 36.8 | 2.2 | 2.8 | 98.7 | 266
